Assay results as given in US20150004174A1.

Assays:
[1] = target: cynomolgus monkey PCSK9, V5-6xHis tagged (cynomolgus monkey); assay: BIAcore SPR, antibody amine-coupled to CM5 chip, PCSK9 as analyte, pH 7.4
[2] = target: cynomolgus monkey PCSK9, V5-6xHis tagged (cynomolgus monkey); assay: BIAcore solution equilibrium binding assay, free PCSK9 measured on immobilized 21B12
[3] = target: cynomolgus monkey PCSK9, V5-6xHis tagged (cynomolgus monkey); assay: KinExA solution equilibrium

B1: 21B12 human IgG4 (from hybridoma) (antibody, V domains shown)
VH: QVQLVQSGAEVKKPGASVKVSCKASGYTLTSYGISWVRQAPGQGLEWMGWVSFYNGNTNYAQKLQGRGTMTTDPSTSTAYMELRSLRSDDTAVYYCARGYGMDVWGQGTTVTVSS
VL: QSALTQPASVSGSPGQSITISCTGTSSDVGGYNSVSWYQQHPGKAPKLMIYEVSNRPSGVSNRFSGSKSGNTASLTISGLQAEDEADYYCNSYTSTSMVFGGGTKLTVLQ
Kd [1]: 0.36 nM
Kd [2]: 0.011 nM

B2: 16F12 human IgG4 (antibody, V domains shown)
VH: QVHLVESGGGVVQPGRSLRLSCAASGFTFNSFGMHWVRQAPGKGLEWVALIWSDGSDEYYADSVKGRFTISRDNSKNTLYLQMNSLRAEDTAVYYCARAIAALYYYYGMDVWGQGTTVTVSS
VL: QSVLTQPPSVSAAPGQKVTISCSGSSSNIGNNFVSWYQQLPGTAPKLLIYDYNKRPSGIPDRFSGSKSGTSATLGITGLQTGDEADYYCGTWDSSLSAYVFGTGTRVTVLQ
Kd [3]: 0.016 nM
Kd [1]: 0.87 nM
